Measured values from the supplement of paper PMC9112550, “Optimization of the antimicrobial peptide Bac7 by deep mutational scanning” (BMC Biology, 2022).

test system: Escherichia coli TOP10; experiment: shrunken log2 fold change of peptide-encoding DNA abundance (4.5 h post-induction vs induction); higher = less antimicrobial activity (less host growth inhibition); settings: time post-induction: 4.5 h; library: site-saturation at positions 5, 18, 19, 20
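Also: peptides expressed intracellularly from a pBAD plasmid library in pooled LB shake-flask culture, induced with 0.3% L-arabinose, DNA abundance read by NGS, three biological replicates, DESeq2 with apeglm shrinkage.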

| Sequence | shrunken log2 fold change |
| --- | --- |
| RRIRMRPPRLPRPRPRPATPPRP | 1.24 |
| RRIRCRPPRLPRPRPRPGMGPRP | 0.223 |
| RRIRPRPPRLPRPRPRPLVDPRP | 0.111 |
| RRIRFRPPRLPRPRPRPSHLPRP | -0.737 |
| RRIRSRPPRLPRPRPRPPCVPRP | 0.00342 |
| RRIRDRPPRLPRPRPRPWYMPRP | -0.315 |
| RRIRLRPPRLPRPRPRPWNWPRP | 0.0524 |
| RRIRPRPPRLPRPRPRPWQLPRP | 0.224 |
| RRIRSRPPRLPRPRPRPSMCPRP | -0.146 |
| RRIRSRPPRLPRPRPRPAVDPRP | 0.462 |
| RRIRERPPRLPRPRPRPRRGPRP | 0.142 |
| RRIRWRPPRLPRPRPRPKAGPRP | 0.538 |
| RRIRGRPPRLPRPRPRPIIMPRP | -0.129 |
| RRIRVRPPRLPRPRPRPAQNPRP | 0.261 |
| RRIRKRPPRLPRPRPRPFPHPRP | -0.04 |
| RRIRSRPPRLPRPRPRPPYVPRP | -0.215 |
| RRIRMRPPRLPRPRPRPTNGPRP | -0.0328 |
| RRIRRRPPRLPRPRPRPAQMPRP | 0.161 |
| RRIRKRPPRLPRPRPRPATHPRP | 0.426 |
| RRIRYRPPRLPRPRPRPACEPRP | -0.0778 |
| RRIRIRPPRLPRPRPRPMTEPRP | 0.0149 |
| RRIRFRPPRLPRPRPRPTHRPRP | -0.0781 |
| RRIRLRPPRLPRPRPRPTANPRP | 0.329 |
| RRIRQRPPRLPRPRPRPSSTPRP | -0.215 |
| RRIRARPPRLPRPRPRPNCMPRP | -0.421 |

| Sequence | shrunken log2 fold change |
| --- | --- |
| RRIRLRPPRLPRPRPRPKWNPRP | -0.299 |
| RRIRPRPPRLPRPRPRPFIEPRP | -0.245 |
| RRIRNRPPRLPRPRPRPELTPRP | 0.162 |
| RRIRWRPPRLPRPRPRPYSYPRP | -0.00188 |
| RRIRMRPPRLPRPRPRPAYSPRP | -0.166 |
| RRIRHRPPRLPRPRPRPMTGPRP | -0.218 |
| RRIRERPPRLPRPRPRPWPGPRP | -0.0345 |
| RRIRIRPPRLPRPRPRPSHSPRP | -1.02 |
| RRIRARPPRLPRPRPRPVMGPRP | 0.177 |
| RRIRSRPPRLPRPRPRPDWFPRP | 0.0986 |
| RRIRGRPPRLPRPRPRPPAPPRP | 1.6 |
| RRIRVRPPRLPRPRPRPWSYPRP | -0.0283 |
| RRIRNRPPRLPRPRPRPNQCPRP | -0.136 |
| RRIRTRPPRLPRPRPRPRDGPRP | 0.456 |
| RRIRMRPPRLPRPRPRPSEIPRP | -0.00151 |
| RRIRVRPPRLPRPRPRPTKWPRP | 0.0808 |
| RRIRDRPPRLPRPRPRPEVEPRP | 1.68 |
| RRIRARPPRLPRPRPRPGANPRP | 0.589 |
| RRIRVRPPRLPRPRPRPLMGPRP | 0.0412 |
| RRIRSRPPRLPRPRPRPAKEPRP | 0.0106 |
| RRIRCRPPRLPRPRPRPTECPRP | -0.168 |
| RRIRMRPPRLPRPRPRPYVAPRP | -0.445 |
| RRIRMRPPRLPRPRPRPIQSPRP | 0.00351 |
| RRIRMRPPRLPRPRPRPKHVPRP | 0.0503 |
| RRIRGRPPRLPRPRPRPWDWPRP | 1.2 |

| Sequence | shrunken log2 fold change |
| --- | --- |
| RRIRHRPPRLPRPRPRPFPFPRP | -0.758 |
| RRIRHRPPRLPRPRPRPCYFPRP | -0.117 |
| RRIRWRPPRLPRPRPRPHNAPRP | -0.0847 |
| RRIRPRPPRLPRPRPRPYHEPRP | -0.348 |
| RRIRNRPPRLPRPRPRPRRAPRP | 0.604 |
| RRIRARPPRLPRPRPRPVCLPRP | 0.138 |
| RRIRVRPPRLPRPRPRPVSNPRP | -0.0653 |
| RRIRTRPPRLPRPRPRPDGDPRP | 0.052 |
| RRIRARPPRLPRPRPRPKPIPRP | 0.319 |
| RRIRRRPPRLPRPRPRPMKHPRP | -0.191 |
| RRIRIRPPRLPRPRPRPHAQPRP | 0.142 |
| RRIRVRPPRLPRPRPRPMATPRP | -0.182 |
| RRIRLRPPRLPRPRPRPNSIPRP | -0.0133 |
| RRIRARPPRLPRPRPRPPNYPRP | -0.0985 |
| RRIRARPPRLPRPRPRPFVYPRP | -0.116 |
| RRIRQRPPRLPRPRPRPDWVPRP | 0.116 |
| RRIRMRPPRLPRPRPRPPHEPRP | 0.445 |
| RRIRHRPPRLPRPRPRPIRMPRP | -0.217 |
| RRIRQRPPRLPRPRPRPSAHPRP | -0.075 |
| RRIRFRPPRLPRPRPRPDVHPRP | -0.179 |
| RRIRPRPPRLPRPRPRPPFQPRP | 0.119 |
| RRIRERPPRLPRPRPRPGKMPRP | 0.0204 |
| RRIRSRPPRLPRPRPRPCYHPRP | -0.297 |
| RRIRARPPRLPRPRPRPGDFPRP | 0.383 |
| RRIRARPPRLPRPRPRPHIWPRP | -0.187 |

| Sequence | shrunken log2 fold change |
| --- | --- |
| RRIRFRPPRLPRPRPRPVRPPRP | 1.18 |
| RRIRSRPPRLPRPRPRPEYPPRP | -0.128 |
| RRIRKRPPRLPRPRPRPCKMPRP | 0.093 |
| RRIRLRPPRLPRPRPRPEMTPRP | 0.276 |
| RRIRQRPPRLPRPRPRPSYNPRP | -0.723 |
| RRIRFRPPRLPRPRPRPLLEPRP | -0.0853 |
| RRIRVRPPRLPRPRPRPDFEPRP | 0.0704 |
| RRIRMRPPRLPRPRPRPQMFPRP | -0.0181 |
| RRIRRRPPRLPRPRPRPWNIPRP | -0.0317 |
| RRIRIRPPRLPRPRPRPCCRPRP | -0.322 |
| RRIRCRPPRLPRPRPRPHCTPRP | -0.88 |
| RRIRLRPPRLPRPRPRPDLQPRP | -0.0184 |
| RRIRTRPPRLPRPRPRPCSSPRP | -0.0634 |
| RRIRQRPPRLPRPRPRPGCTPRP | -0.269 |
| RRIRQRPPRLPRPRPRPTWYPRP | -0.174 |
| RRIRNRPPRLPRPRPRPQGAPRP | -0.149 |
| RRIRKRPPRLPRPRPRPYVFPRP | -0.0884 |
| RRIRRRPPRLPRPRPRPMLLPRP | -0.0984 |
| RRIRRRPPRLPRPRPRPDWNPRP | -0.223 |
| RRIRGRPPRLPRPRPRPSCLPRP | 0.571 |
| RRIRLRPPRLPRPRPRPFTDPRP | -0.317 |
| RRIRQRPPRLPRPRPRPAHMPRP | -0.267 |
| RRIRNRPPRLPRPRPRPPKCPRP | 0.189 |
| RRIRYRPPRLPRPRPRPHYEPRP | -1.49 |
| RRIRARPPRLPRPRPRPGLQPRP | 0.577 |

| Sequence | shrunken log2 fold change |
| --- | --- |
| RRIRRRPPRLPRPRPRPINSPRP | -0.314 |
| RRIRCRPPRLPRPRPRPKCTPRP | -0.0914 |
| RRIRCRPPRLPRPRPRPLIWPRP | -0.177 |
| RRIRNRPPRLPRPRPRPRGNPRP | 0.26 |
| RRIRARPPRLPRPRPRPDLRPRP | 0.0309 |
| RRIRTRPPRLPRPRPRPIVYPRP | -0.85 |
| RRIRNRPPRLPRPRPRPCKEPRP | -0.451 |
| RRIRQRPPRLPRPRPRPGGPPRP | 0.0535 |
| RRIRLRPPRLPRPRPRPMTIPRP | 0.0154 |
| RRIRLRPPRLPRPRPRPNMDPRP | 0.0212 |
| RRIRNRPPRLPRPRPRPRYTPRP | -0.56 |
| RRIRDRPPRLPRPRPRPASEPRP | 0.453 |
| RRIRCRPPRLPRPRPRPWAPPRP | -0.102 |
| RRIRLRPPRLPRPRPRPGASPRP | 0.642 |
| RRIRTRPPRLPRPRPRPFHVPRP | -0.0683 |
| RRIRMRPPRLPRPRPRPRRYPRP | 1.15 |
| RRIRTRPPRLPRPRPRPRDRPRP | 0.19 |
| RRIRFRPPRLPRPRPRPIMLPRP | -0.205 |
| RRIRIRPPRLPRPRPRPQKYPRP | -0.784 |
| RRIRCRPPRLPRPRPRPAVAPRP | 0.137 |
| RRIRSRPPRLPRPRPRPMWFPRP | 0.14 |
| RRIRGRPPRLPRPRPRPDCDPRP | 0.841 |
| RRIRHRPPRLPRPRPRPCIMPRP | -0.0341 |
| RRIRGRPPRLPRPRPRPTSIPRP | 0.129 |
| RRIRSRPPRLPRPRPRPAMLPRP | 0.0679 |
